Data taken from patent publication US20260015399A1 (Boehringer Ingelheim, published 2026).
*1 amine or outer side, *2 acyl side, *3 side chain or, on linkers, in order; H or OH if unused. Side-chain parts run from the residue outwards. The star is where a group is joined. C18 diacid = O=C(O)CCCCCCCCCCCCCCCCC(=O)*; γGlu = O=C(O)[C@H](CCC(=O)[*:2])N[*:1]; Isovaleryl = CC(C)CC(=O)*; Ahx = NCCCCCC(=O)O

T1: human NPY2 receptor (human, UniProt P49146 1-381)
T1 construct: whole, on cells; also called hNPY2-R; hNPY2R
T1 sequence (looked up): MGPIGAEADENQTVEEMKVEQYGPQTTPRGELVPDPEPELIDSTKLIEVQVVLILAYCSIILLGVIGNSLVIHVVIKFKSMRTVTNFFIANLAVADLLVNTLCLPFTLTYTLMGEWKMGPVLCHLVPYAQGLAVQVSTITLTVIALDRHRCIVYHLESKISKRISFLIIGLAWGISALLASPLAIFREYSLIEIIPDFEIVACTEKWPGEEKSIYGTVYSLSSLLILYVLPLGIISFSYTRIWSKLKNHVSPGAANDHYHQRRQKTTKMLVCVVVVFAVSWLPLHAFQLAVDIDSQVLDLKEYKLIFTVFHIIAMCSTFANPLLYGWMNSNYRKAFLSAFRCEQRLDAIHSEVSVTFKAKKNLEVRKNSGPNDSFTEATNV

B1: Compound 102 (peptide)
peptide: Isovaleryl-APEK([Ahx-γGlu-C18 diacid])PEEDATLEELQRYYVSLRHYYNWLTRQRY-NH2
SMILES: CC(C)CC(=O)N[C@@H](C)C(=O)N1CCC[C@H]1C(=O)N[C@@H](CCC(=O)O)C(=O)N[C@@H](CCCCNC(=O)CCCCCNC(=O)CC[C@H](NC(=O)CCCCCCCCCCCCCCCCC(=O)O)C(=O)O)C(=O)N1CCC[C@H]1C(=O)N[C@@H](CCC(=O)O)C(=O)N[C@@H](CCC(=O)O)C(=O)N[C@@H](CC(=O)O)C(=O)N[C@@H](C)C(=O)N[C@H](C(=O)N[C@@H](CC(C)C)C(=O)N[C@@H](CCC(=O)O)C(=O)N[C@@H](CCC(=O)O)C(=O)N[C@@H](CC(C)C)C(=O)N[C@@H](CCC(N)=O)C(=O)N[C@@H](CCCNC(=N)N)C(=O)N[C@@H](Cc1ccc(O)cc1)C(=O)N[C@@H](Cc1ccc(O)cc1)C(=O)N[C@H](C(=O)N[C@@H](CO)C(=O)N[C@@H](CC(C)C)C(=O)N[C@@H](CCCNC(=N)N)C(=O)N[C@@H](Cc1c[nH]cn1)C(=O)N[C@@H](Cc1ccc(O)cc1)C(=O)N[C@@H](Cc1ccc(O)cc1)C(=O)N[C@@H](CC(N)=O)C(=O)N[C@@H](Cc1c[nH]c2ccccc12)C(=O)N[C@@H](CC(C)C)C(=O)N[C@H](C(=O)N[C@@H](CCCNC(=N)N)C(=O)N[C@@H](CCC(N)=O)C(=O)N[C@@H](CCCNC(=N)N)C(=O)N[C@@H](Cc1ccc(O)cc1)C(N)=O)[C@@H](C)O)C(C)C)[C@@H](C)O
B2: Compound 107 (peptide)
peptide: Isovaleryl-APEK([Ahx-γGlu-C18 diacid])PEEDAEPEETQRYYVSLRHYYNWLTRQRY-NH2
SMILES: CC(C)CC(=O)N[C@@H](C)C(=O)N1CCC[C@H]1C(=O)N[C@@H](CCC(=O)O)C(=O)N[C@@H](CCCCNC(=O)CCCCCNC(=O)CC[C@H](NC(=O)CCCCCCCCCCCCCCCCC(=O)O)C(=O)O)C(=O)N1CCC[C@H]1C(=O)N[C@@H](CCC(=O)O)C(=O)N[C@@H](CCC(=O)O)C(=O)N[C@@H](CC(=O)O)C(=O)N[C@@H](C)C(=O)N[C@@H](CCC(=O)O)C(=O)N1CCC[C@H]1C(=O)N[C@@H](CCC(=O)O)C(=O)N[C@@H](CCC(=O)O)C(=O)N[C@H](C(=O)N[C@@H](CCC(N)=O)C(=O)N[C@@H](CCCNC(=N)N)C(=O)N[C@@H](Cc1ccc(O)cc1)C(=O)N[C@@H](Cc1ccc(O)cc1)C(=O)N[C@H](C(=O)N[C@@H](CO)C(=O)N[C@@H](CC(C)C)C(=O)N[C@@H](CCCNC(=N)N)C(=O)N[C@@H](Cc1c[nH]cn1)C(=O)N[C@@H](Cc1ccc(O)cc1)C(=O)N[C@@H](Cc1ccc(O)cc1)C(=O)N[C@@H](CC(N)=O)C(=O)N[C@@H](Cc1c[nH]c2ccccc12)C(=O)N[C@@H](CC(C)C)C(=O)N[C@H](C(=O)N[C@@H](CCCNC(=N)N)C(=O)N[C@@H](CCC(N)=O)C(=O)N[C@@H](CCCNC(=N)N)C(=O)N[C@@H](Cc1ccc(O)cc1)C(N)=O)[C@@H](C)O)C(C)C)[C@@H](C)O
B3: Compound 109 (peptide)
peptide: Isovaleryl-APEK([Ahx-γGlu-C18 diacid])PEEDLTPEELQRYYVSLRHYYNWLTRQRY-NH2
SMILES: CC(C)CC(=O)N[C@@H](C)C(=O)N1CCC[C@H]1C(=O)N[C@@H](CCC(=O)O)C(=O)N[C@@H](CCCCNC(=O)CCCCCNC(=O)CC[C@H](NC(=O)CCCCCCCCCCCCCCCCC(=O)O)C(=O)O)C(=O)N1CCC[C@H]1C(=O)N[C@@H](CCC(=O)O)C(=O)N[C@@H](CCC(=O)O)C(=O)N[C@@H](CC(=O)O)C(=O)N[C@@H](CC(C)C)C(=O)N[C@H](C(=O)N1CCC[C@H]1C(=O)N[C@@H](CCC(=O)O)C(=O)N[C@@H](CCC(=O)O)C(=O)N[C@@H](CC(C)C)C(=O)N[C@@H](CCC(N)=O)C(=O)N[C@@H](CCCNC(=N)N)C(=O)N[C@@H](Cc1ccc(O)cc1)C(=O)N[C@@H](Cc1ccc(O)cc1)C(=O)N[C@H](C(=O)N[C@@H](CO)C(=O)N[C@@H](CC(C)C)C(=O)N[C@@H](CCCNC(=N)N)C(=O)N[C@@H](Cc1c[nH]cn1)C(=O)N[C@@H](Cc1ccc(O)cc1)C(=O)N[C@@H](Cc1ccc(O)cc1)C(=O)N[C@@H](CC(N)=O)C(=O)N[C@@H](Cc1c[nH]c2ccccc12)C(=O)N[C@@H](CC(C)C)C(=O)N[C@H](C(=O)N[C@@H](CCCNC(=N)N)C(=O)N[C@@H](CCC(N)=O)C(=O)N[C@@H](CCCNC(=N)N)C(=O)N[C@@H](Cc1ccc(O)cc1)C(N)=O)[C@@H](C)O)C(C)C)[C@@H](C)O
B4: Compound 108 (peptide)
peptide: Isovaleryl-APEK([Ahx-γGlu-C18 diacid])PEADASEEELQRYYVSLRHYYNWLTRQRY-NH2
SMILES: CC(C)CC(=O)N[C@@H](C)C(=O)N1CCC[C@H]1C(=O)N[C@@H](CCC(=O)O)C(=O)N[C@@H](CCCCNC(=O)CCCCCNC(=O)CC[C@H](NC(=O)CCCCCCCCCCCCCCCCC(=O)O)C(=O)O)C(=O)N1CCC[C@H]1C(=O)N[C@@H](CCC(=O)O)C(=O)N[C@@H](C)C(=O)N[C@@H](CC(=O)O)C(=O)N[C@@H](C)C(=O)N[C@@H](CO)C(=O)N[C@@H](CCC(=O)O)C(=O)N[C@@H](CCC(=O)O)C(=O)N[C@@H](CCC(=O)O)C(=O)N[C@@H](CC(C)C)C(=O)N[C@@H](CCC(N)=O)C(=O)N[C@@H](CCCNC(=N)N)C(=O)N[C@@H](Cc1ccc(O)cc1)C(=O)N[C@@H](Cc1ccc(O)cc1)C(=O)N[C@H](C(=O)N[C@@H](CO)C(=O)N[C@@H](CC(C)C)C(=O)N[C@@H](CCCNC(=N)N)C(=O)N[C@@H](Cc1c[nH]cn1)C(=O)N[C@@H](Cc1ccc(O)cc1)C(=O)N[C@@H](Cc1ccc(O)cc1)C(=O)N[C@@H](CC(N)=O)C(=O)N[C@@H](Cc1c[nH]c2ccccc12)C(=O)N[C@@H](CC(C)C)C(=O)N[C@H](C(=O)N[C@@H](CCCNC(=N)N)C(=O)N[C@@H](CCC(N)=O)C(=O)N[C@@H](CCCNC(=N)N)C(=O)N[C@@H](Cc1ccc(O)cc1)C(N)=O)[C@@H](C)O)C(C)C
B5: Compound 110 (peptide)
peptide: Isovaleryl-APEK([Ahx-γGlu-C18 diacid])PEEDATPEELQRYYVELRHYYNWLTRQRY-NH2
SMILES: CC(C)CC(=O)N[C@@H](C)C(=O)N1CCC[C@H]1C(=O)N[C@@H](CCC(=O)O)C(=O)N[C@@H](CCCCNC(=O)CCCCCNC(=O)CC[C@H](NC(=O)CCCCCCCCCCCCCCCCC(=O)O)C(=O)O)C(=O)N1CCC[C@H]1C(=O)N[C@@H](CCC(=O)O)C(=O)N[C@@H](CCC(=O)O)C(=O)N[C@@H](CC(=O)O)C(=O)N[C@@H](C)C(=O)N[C@H](C(=O)N1CCC[C@H]1C(=O)N[C@@H](CCC(=O)O)C(=O)N[C@@H](CCC(=O)O)C(=O)N[C@@H](CC(C)C)C(=O)N[C@@H](CCC(N)=O)C(=O)N[C@@H](CCCNC(=N)N)C(=O)N[C@@H](Cc1ccc(O)cc1)C(=O)N[C@@H](Cc1ccc(O)cc1)C(=O)N[C@H](C(=O)N[C@@H](CCC(=O)O)C(=O)N[C@@H](CC(C)C)C(=O)N[C@@H](CCCNC(=N)N)C(=O)N[C@@H](Cc1c[nH]cn1)C(=O)N[C@@H](Cc1ccc(O)cc1)C(=O)N[C@@H](Cc1ccc(O)cc1)C(=O)N[C@@H](CC(N)=O)C(=O)N[C@@H](Cc1c[nH]c2ccccc12)C(=O)N[C@@H](CC(C)C)C(=O)N[C@H](C(=O)N[C@@H](CCCNC(=N)N)C(=O)N[C@@H](CCC(N)=O)C(=O)N[C@@H](CCCNC(=N)N)C(=O)N[C@@H](Cc1ccc(O)cc1)C(N)=O)[C@@H](C)O)C(C)C)[C@@H](C)O
B6: Compound 105 (peptide)
peptide: Isovaleryl-APEK([Ahx-γGlu-C18 diacid])PEEDATQEELQRYYVSLRHYYNWLTRQRY-NH2
SMILES: CC(C)CC(=O)N[C@@H](C)C(=O)N1CCC[C@H]1C(=O)N[C@@H](CCC(=O)O)C(=O)N[C@@H](CCCCNC(=O)CCCCCNC(=O)CC[C@H](NC(=O)CCCCCCCCCCCCCCCCC(=O)O)C(=O)O)C(=O)N1CCC[C@H]1C(=O)N[C@@H](CCC(=O)O)C(=O)N[C@@H](CCC(=O)O)C(=O)N[C@@H](CC(=O)O)C(=O)N[C@@H](C)C(=O)N[C@H](C(=O)N[C@@H](CCC(N)=O)C(=O)N[C@@H](CCC(=O)O)C(=O)N[C@@H](CCC(=O)O)C(=O)N[C@@H](CC(C)C)C(=O)N[C@@H](CCC(N)=O)C(=O)N[C@@H](CCCNC(=N)N)C(=O)N[C@@H](Cc1ccc(O)cc1)C(=O)N[C@@H](Cc1ccc(O)cc1)C(=O)N[C@H](C(=O)N[C@@H](CO)C(=O)N[C@@H](CC(C)C)C(=O)N[C@@H](CCCNC(=N)N)C(=O)N[C@@H](Cc1c[nH]cn1)C(=O)N[C@@H](Cc1ccc(O)cc1)C(=O)N[C@@H](Cc1ccc(O)cc1)C(=O)N[C@@H](CC(N)=O)C(=O)N[C@@H](Cc1c[nH]c2ccccc12)C(=O)N[C@@H](CC(C)C)C(=O)N[C@H](C(=O)N[C@@H](CCCNC(=N)N)C(=O)N[C@@H](CCC(N)=O)C(=O)N[C@@H](CCCNC(=N)N)C(=O)N[C@@H](Cc1ccc(O)cc1)C(N)=O)[C@@H](C)O)C(C)C)[C@@H](C)O

Biological target: T1, human NPY2 receptor
Experiment: RLB: displacement of 125I-PYY(1-36) from hNPY2R membranes

| Ki | Binder |
| --- | --- |
| 7.15 nM | B1 |
| 5.13 nM | B2 |
| 14 nM | B3 |
| 2.77 nM | B4 |
| 6.42 nM | B5 |
| 5.97 nM | B6 |
